According to patent US20110262525A1, “METHODS OF TREATMENT” (SCHERING CORPORATION, priority 2006, published 2011):
Marks after values point to notes of the source that are not given here.

Tests used:
[1] = tested on: A498 human kidney carcinoma tumor cells; experiment: A498 renal cell carcinoma xenograft in athymic nude mice; format: in vivo, mouse; conditions: 0.1 mg/injection ip two times per week, seven times starting on day 12
Protocol: Athymic nude mice were inoculated with A498 human kidney carcinoma tumor cells in the right flank, subcutaneously, along with Matrigel (1:1::cells:gel). In these experiments, 5×10^6 cells/mouse in a 1:1 mix with regular matrigel. The LCF/HCA anti-IGF1R antibody was inoculated intraperitoneally (ip) (0.1 mg/injection). Mice were dosed with antibody two times per week, by intraperitoneal injection, seven times starting on day 12. Tumor size was measured with calipers and the data was entered into the LABCAT data experimental collection and analysis program program (Innovative Programming Associates, Inc.; Princeton, N.J.). Mice were grouped with average size of 100 mm^3. Tumor size and body weight were measured twice weekly.

[2] = tested on: BT-46 xenograft (Medulloblastoma); experiment: PPTP in vivo xenograft BT-46; conditions: BT-46 (Medulloblastoma) xenograft, 0.5 mg per mouse ip twice weekly for four weeks
Protocol: (§1) The PPTP includes a molecularly characterized in vitro panel of cell lines (n=27) and in vivo panel of xenografts (n=61) representing most of the common types of childhood solid tumors and childhood ALL (acute lymphoblastic leukemia). LCF/HCA anti-IGF1R antibody was tested against the PPTP in vitro panel at concentrations ranging from 0.01 nM to 100 nM; and was tested against the PPTP in vivo panel at a dose of 0.5 mg per mouse administered twice weekly for four weeks via intraperitoneal injection. Three measures of antitumor activity were used: 1) response criteria modeled after the clinical setting; 2) treated-to-control (T/C) tumor volume at day 21; and 3) a time to event (4-fold increase in tumor volume) measure based on the median EFS of treated and control lines (intermediate activity required EFS (event-free survival) T/C>2, and high activity additionally required a net reduction in median tumor volume at the end of the experiment).
(§2) Stage 1 testing involved testing an agent across the entire PPTP panel of childhood cancer xenograft lines at its maximum tolerated dose (MTD) or at a dose selected based on PK/PD (pharmacokinetic/pharmacodynamic) studies using adult preclinical models.
(§3) In vivo solid tumor testing: For each xenograft line, 10 mice bearing subcutaneous (SC) tumors initiated treatment when the tumors were between 0.2-0.5 cm^3 in volume. Two perpendicular tumor diameters were measured at once weekly intervals with digital vernier calipers. Assuming tumors to be spherical, volumes were calculated from the formula (π/6)×d3, where d represented the mean diameter.
(§4) Drug: LCF/HCA was dissolved in 20mM sodium acetate pH 5 buffer containing 150 mM sodium chloride, and administered intraperitoneally twice weekly for 4 consecutive weeks at a dose of 0.5 mg per animal. […]
(§5) Median Group Response: Each individual mouse in each treatment group was assigned a response score (see Tables above) and a median score for the treatment group was calculated and then each treatment group was assigned an overall response according to the table below. […]

[3] = tested on: BT-28 xenograft (Medulloblastoma); experiment: PPTP in vivo xenograft BT-28; conditions: BT-28 (Medulloblastoma) xenograft, 0.5 mg per mouse ip twice weekly for four weeks
Protocol: as §1, §2, §3, §4, §5

[4] = tested on: NB-1643 xenograft (Neuroblastoma); experiment: PPTP in vivo xenograft NB-1643; conditions: NB-1643 (Neuroblastoma) xenograft, 0.5 mg per mouse ip twice weekly for four weeks
Protocol: as §1, §2, §3
(§6) Drug: LCF/HCA was dissolved in 20mM sodium acetate pH 5 buffer containing 150 mM sodium chloride, and administered intraperitoneally twice weekly for 4 consecutive weeks at a dose of 0.5 mg per animal. The antibody was provided to each testing site in coded vials for blinded testing according the PPTP's standard operating procedures.
(§7) Median Group Response: Each individual mouse in each treatment group was assigned a response score (see Tables above) and a median score for the treatment group was calculated and then each treatment group was assigned an overall response according to the table below.
(§8) Statistical Methods: Event-free survival (EFS) distributions of each treatment group were compared to the EFS distribution of the respective control group using the exact log rank test. P-values were 2-sided & were not adjusted for multiple comparisons given the exploratory nature of this study. P-values<0.05 were considered to be significant.

[5] = tested on: OS-31 xenograft (Osteosarcoma); experiment: PPTP in vivo xenograft OS-31; conditions: OS-31 (Osteosarcoma) xenograft, 0.5 mg per mouse ip twice weekly for four weeks
Protocol: as §1, §2, §3, §4, §5

[6] = tested on: NB-1771 xenograft (Neuroblastoma); experiment: PPTP in vivo xenograft NB-1771; conditions: NB-1771 (Neuroblastoma) xenograft, 0.5 mg per mouse ip twice weekly for four weeks
Protocol: as §1, §2, §3, §4, §5

[7] = tested on: ALL-3 xenograft (ALL B-precursor); experiment: PPTP in vivo leukemia xenograft ALL-3; conditions: ALL-3 (ALL B-precursor) xenograft; 0.5 mg per mouse ip twice weekly for four weeks
Protocol: (§9) The PPTP includes a molecularly characterized in vitro panel of cell lines (n=27) and in vivo panel of xenografts (n=61) representing most of the common types of childhood solid tumors and childhood ALL (acute lymphoblastic leukemia). LCF/HCA anti-IGF1R antibody was tested against the PPTP in vitro panel at concentrations ranging from 0.01 nM to 100 nM; and was tested against the PPTP in vivo panel at a dose of 0.5 mg per mouse administered twice weekly for four weeks via intraperitoneal injection. […]
(§10) In vivo acute lymphoblastic leukemia testing: For each xenograft line, 8 mice were inoculated with 3-5×10^6 mononuclear cells purified from the spleens of secondary recipient mice. Engraftment was monitored weekly by flow cytometry, and treatment was initiated when the proportion of human CD45+ cells in the peripheral blood reached 1%. The proportion of human CD45+ cells in the peripheral blood was monitored weekly throughout the course of treatment. […]
as §5

[8] = tested on: OS-2 xenograft (Osteosarcoma); experiment: PPTP in vivo xenograft OS-2; parameters: key to EFS activity notation (high, intermediate, indeterminate): high (!); intermediate (#); indeterminate (^); conditions: OS-2 (Osteosarcoma) xenograft, 0.5 mg per mouse ip twice weekly for four weeks
Protocol: as §1, §2, §3, §6, §7, §8

[9] = tested on: ALL-8 xenograft (ALL T-cell); experiment: PPTP in vivo leukemia xenograft ALL-8; conditions: ALL-8 (ALL T-cell) xenograft; 0.5 mg per mouse ip twice weekly for four weeks
Protocol: as §9, §10, §5

B1: LCF/HCA: fully human anti-IGF1R antibody comprising the mature 19D12/15H12 light chain F (LCF) and mature heavy chain A (HCA) (antibody, V domains shown)
VH: EVQLVQSGGGLVHPGGSLRLSCAASGFTFSSFAMHWVRQAPGKGLEWISVIDTRGATYYADSVKGRFTISRDNAKNSLYLQMNSLRAEDMAVYYCARLGNFYYGMDVWGQGTTVTVSS
VL: EIVLTQVPDFQSVTPKEKVTITCRASQSIGSSLHWYQQKPDQSPKLLIKYASQSLSGVPSRFSGSGSGTDFTLTINSLEAEDAAAYYCHQSSRLPHTFGGGTKVEIKRT
- in vivo growth of renal cell carcinoma tumor [1]: in vivo growth inhibition
- EFS T/C [2]: 1.2
- Median Final RTV [2]: >4
- Tumor Volume T/C ([2]; day 21): 0.69
- EFS T/C [3]: 1.2
- Median Final RTV [3]: >4
- Tumor Volume T/C ([3]; day 21): 1.18
- EFS T/C [4]: 1.8
- Median Final RTV [4]: >4
- Overall Group Response [4]: PD2 (1 < MS ≦ 3)
- Tumor Volume T/C ([4]; day 21): 0.53
- EFS T/C [5]: 1.3
- Median Final RTV [5]: >4
- Tumor Volume T/C ([5]; day 21): 0.88
- EFS T/C [6]: 1.1
- Median Final RTV [6]: >4
- Tumor Volume T/C ([6]; day 21): 0.64
- EFS T/C [7]: 0.4
- Median Final RTV [7]: >25
- EFS T/C [8]: 2.3
- EFS activity notation (high, intermediate, indeterminate) [8]: #
- Median Final RTV [8]: >4#
- Overall Group Response [8]: PD2 (1 < MS ≦ 3)
- Tumor Volume T/C ([8]; day 21): 0.5
- EFS T/C [9]: 1.5
- Median Final RTV [9]: >25
